T1: human FcγRIIa(R) (human, UniProt P12318 36-217)
T1 construct: also called FcgRIIaR; hFcgRIIa(R)
T1 chain: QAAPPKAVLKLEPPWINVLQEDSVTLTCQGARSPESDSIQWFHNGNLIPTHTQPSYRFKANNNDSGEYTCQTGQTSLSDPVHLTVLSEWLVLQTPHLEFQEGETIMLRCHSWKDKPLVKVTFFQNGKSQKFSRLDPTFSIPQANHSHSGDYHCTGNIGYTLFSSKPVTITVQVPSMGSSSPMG

T2: human FcγRIIa(H) (human, UniProt P12318 36-217)
T2 construct: also called FcgRIIaH; hFcgRIIa(H)
T2 sequence: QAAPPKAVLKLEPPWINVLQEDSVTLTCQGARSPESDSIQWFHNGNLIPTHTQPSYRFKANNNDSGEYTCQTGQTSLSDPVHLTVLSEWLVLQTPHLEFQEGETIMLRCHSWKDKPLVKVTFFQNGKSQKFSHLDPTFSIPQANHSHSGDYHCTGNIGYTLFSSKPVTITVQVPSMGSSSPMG

T3: human FcγRIIb (human, UniProt P31994 43-217, limits assumed)
T3 construct: also called FcgRIIb; hFcgRIIb
T3 sequence: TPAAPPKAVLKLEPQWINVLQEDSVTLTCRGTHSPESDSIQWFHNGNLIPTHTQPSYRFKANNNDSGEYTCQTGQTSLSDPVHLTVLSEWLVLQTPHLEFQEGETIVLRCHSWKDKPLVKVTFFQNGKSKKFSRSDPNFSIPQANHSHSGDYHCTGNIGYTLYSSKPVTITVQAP


What was measured:
Experiment in all cases: SPR, captured antibody;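 also: antibody captured on a sensor chip, Fcγ receptor flowed over at 25 °C, receptor binding normalized to the captured antibody amount and expressed relative to the reference antibody ×100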
human FcγRIIa(R) = biological target: T1, human FcγRIIa(R)
Experimental: (§1) Interaction between each modified antibody and Fcγ receptor prepared in the manner described above was analyzed using the BIACORE™ T100 surface plasmon resonance system (GE Healthcare), BIACORE™ T200 surface plasmon resonance system (GE Healthcare), BIACORE™ A100 surface plasmon resonance system or BIACORE™ 4000 surface plasmon resonance system. HBS-EP+ (GE Healthcare) was used for the running buffer, and measurements were carried out at 25° C. The chips used were chips in which antigen peptides, Protein A (Thermo Scientific), Protein A/G (Thermo Scientific) or Protein L (ACTIGEN® protein (Alltech or BioVision) were immobilized on the Series S Sensor Chip CMS (GE Healthcare) or Series S Sensor Chip CM4 (GE Healthcare) by amine coupling, or chips in which preliminarily biotinylated antigen peptides were allowed to interact and then immobilized on the Series S Sensor Chip SA (certified) (GE Healthcare). The target antibodies were captured on these sensor chips, Fcγ receptor diluted with the running buffer was allowed to interact, followed by measurement of the amount of bound antibody. The amounts bound were compared between antibodies. However, since the amount of Fcγ receptor bound depends on the amount of captured antibody, the values used for comparison were first corrected by dividing the amount of Fcγ receptor bound by the captured amount of each antibody. Through reaction with 10 mM glycine-HCl at pH 1.5, the sensor chips were regenerated by washing off antibody captured on the sensor chips and used repeatedly.
(§2) Binding strength was evaluated according to the following method based on the results of analyzing the interaction with each FcγR. […] That value was then further multiplied by 100, and the resulting value was used as an indicator of relative binding activity to each FcγR.

human FcγRIIa(H) = biological target: T2, human FcγRIIa(H)
Experimental: as §1, §2

human FcγRIIb = biological target: T3, human FcγRIIb
Experimental: as §1, §2

human FcγRIa = biological target: T4, human FcγRIa (human, UniProt P12314 16-292, limits assumed)
T4 construct: also called FcgRIa; hFcgRIa
T4 sequence (P12314 16-292 limits assumed): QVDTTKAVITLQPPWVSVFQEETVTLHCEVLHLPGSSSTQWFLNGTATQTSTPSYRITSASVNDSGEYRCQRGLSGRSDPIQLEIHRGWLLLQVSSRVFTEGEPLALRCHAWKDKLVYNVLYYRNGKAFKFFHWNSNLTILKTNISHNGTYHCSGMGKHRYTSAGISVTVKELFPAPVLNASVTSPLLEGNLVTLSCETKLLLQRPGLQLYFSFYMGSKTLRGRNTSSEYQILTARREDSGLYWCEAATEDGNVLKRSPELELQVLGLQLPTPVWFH
Experimental: as §1, §2

relative binding activity (human FcγRIIa(R))	relative binding activity (human FcγRIIa(H))	relative binding activity (human FcγRIIb)	relative binding activity (human FcγRIa)	Binder
0 % of GpH7-B3/GpL16-k0	0 % of GpH7-B3/GpL16-k0	-3 % of GpH7-B3/GpL16-k0	58 % of GpH7-B3/GpL16-k0	GpH7-B3 A330S/GpL16-k0 (antibody, human IgG1, B3 variant; copies: 2 + 2) heavy: not shown light: DIVMTQSPLSLPVTPGEPASISCQASESLVHSNRNTYLHWYLQKPGQSPQLLIYKVSNRFSGVPDRFSGSGSGTDFTLKISRVEAEDVGVYYCSQNTHVPPTFGQGTKVEIE
0 % of GpH7-B3/GpL16-k0	49 % of GpH7-B3/GpL16-k0	-1 % of GpH7-B3/GpL16-k0	73 % of GpH7-B3/GpL16-k0	GpH7-B3 D270S/GpL16-k0 (antibody, human IgG1, B3 variant; copies: 2 + 2) heavy: not shown light: DIVMTQSPLSLPVTPGEPASISCQASESLVHSNRNTYLHWYLQKPGQSPQLLIYKVSNRFSGVPDRFSGSGSGTDFTLKISRVEAEDVGVYYCSQNTHVPPTFGQGTKVEIE
66 % of GpH7-B3/GpL16-k0	52 % of GpH7-B3/GpL16-k0	62 % of GpH7-B3/GpL16-k0	92 % of GpH7-B3/GpL16-k0	GpH7-B3 L328G/GpL16-k0 (antibody, human IgG1, B3 variant; copies: 2 + 2) heavy: not shown light: DIVMTQSPLSLPVTPGEPASISCQASESLVHSNRNTYLHWYLQKPGQSPQLLIYKVSNRFSGVPDRFSGSGSGTDFTLKISRVEAEDVGVYYCSQNTHVPPTFGQGTKVEIE
1 % of GpH7-B3/GpL16-k0	37 % of GpH7-B3/GpL16-k0	3 % of GpH7-B3/GpL16-k0	84 % of GpH7-B3/GpL16-k0	GpH7-B3 D270V/GpL16-k0 (antibody, human IgG1, B3 variant; copies: 2 + 2) heavy: not shown light: DIVMTQSPLSLPVTPGEPASISCQASESLVHSNRNTYLHWYLQKPGQSPQLLIYKVSNRFSGVPDRFSGSGSGTDFTLKISRVEAEDVGVYYCSQNTHVPPTFGQGTKVEIE
5 % of GpH7-B3/GpL16-k0	62 % of GpH7-B3/GpL16-k0	5 % of GpH7-B3/GpL16-k0	88 % of GpH7-B3/GpL16-k0	GpH7-B3 D270F/GpL16-k0 (antibody, human IgG1, B3 variant; copies: 2 + 2) heavy: not shown light: DIVMTQSPLSLPVTPGEPASISCQASESLVHSNRNTYLHWYLQKPGQSPQLLIYKVSNRFSGVPDRFSGSGSGTDFTLKISRVEAEDVGVYYCSQNTHVPPTFGQGTKVEIE
3 % of GpH7-B3/GpL16-k0	66 % of GpH7-B3/GpL16-k0	5 % of GpH7-B3/GpL16-k0	87 % of GpH7-B3/GpL16-k0	GpH7-B3 D270A/GpL16-k0 (antibody, human IgG1, B3 variant; copies: 2 + 2) heavy: not shown light: DIVMTQSPLSLPVTPGEPASISCQASESLVHSNRNTYLHWYLQKPGQSPQLLIYKVSNRFSGVPDRFSGSGSGTDFTLKISRVEAEDVGVYYCSQNTHVPPTFGQGTKVEIE
12 % of GpH7-B3/GpL16-k0	59 % of GpH7-B3/GpL16-k0	27 % of GpH7-B3/GpL16-k0	77 % of GpH7-B3/GpL16-k0	GpH7-B3 I332K/GpL16-k0 (antibody, human IgG1, B3 variant; copies: 2 + 2) heavy: not shown light: DIVMTQSPLSLPVTPGEPASISCQASESLVHSNRNTYLHWYLQKPGQSPQLLIYKVSNRFSGVPDRFSGSGSGTDFTLKISRVEAEDVGVYYCSQNTHVPPTFGQGTKVEIE
-2 % of GpH7-B3/GpL16-k0	53 % of GpH7-B3/GpL16-k0	-2 % of GpH7-B3/GpL16-k0	78 % of GpH7-B3/GpL16-k0	GpH7-B3 D270Y/GpL16-k0 (antibody, human IgG1, B3 variant; copies: 2 + 2) heavy: not shown light: DIVMTQSPLSLPVTPGEPASISCQASESLVHSNRNTYLHWYLQKPGQSPQLLIYKVSNRFSGVPDRFSGSGSGTDFTLKISRVEAEDVGVYYCSQNTHVPPTFGQGTKVEIE
2 % of GpH7-B3/GpL16-k0	78 % of GpH7-B3/GpL16-k0	0 % of GpH7-B3/GpL16-k0	82 % of GpH7-B3/GpL16-k0	GpH7-B3 D270Q/GpL16-k0 (antibody, human IgG1, B3 variant; copies: 2 + 2) heavy: not shown light: DIVMTQSPLSLPVTPGEPASISCQASESLVHSNRNTYLHWYLQKPGQSPQLLIYKVSNRFSGVPDRFSGSGSGTDFTLKISRVEAEDVGVYYCSQNTHVPPTFGQGTKVEIE
7 % of GpH7-B3/GpL16-k0	57 % of GpH7-B3/GpL16-k0	6 % of GpH7-B3/GpL16-k0	90 % of GpH7-B3/GpL16-k0	GpH7-B3 D270M/GpL16-k0 (antibody, human IgG1, B3 variant; copies: 2 + 2) heavy: not shown light: DIVMTQSPLSLPVTPGEPASISCQASESLVHSNRNTYLHWYLQKPGQSPQLLIYKVSNRFSGVPDRFSGSGSGTDFTLKISRVEAEDVGVYYCSQNTHVPPTFGQGTKVEIE
3 % of GpH7-B3/GpL16-k0	43 % of GpH7-B3/GpL16-k0	1 % of GpH7-B3/GpL16-k0	88 % of GpH7-B3/GpL16-k0	GpH7-B3 D270I/GpL16-k0 (antibody, human IgG1, B3 variant; copies: 2 + 2) heavy: not shown light: DIVMTQSPLSLPVTPGEPASISCQASESLVHSNRNTYLHWYLQKPGQSPQLLIYKVSNRFSGVPDRFSGSGSGTDFTLKISRVEAEDVGVYYCSQNTHVPPTFGQGTKVEIE
28 % of GpH7-B3/GpL16-k0	70 % of GpH7-B3/GpL16-k0	23 % of GpH7-B3/GpL16-k0	95 % of GpH7-B3/GpL16-k0	GpH7-B3 I332R/GpL16-k0 (antibody, human IgG1, B3 variant; copies: 2 + 2) heavy: not shown light: DIVMTQSPLSLPVTPGEPASISCQASESLVHSNRNTYLHWYLQKPGQSPQLLIYKVSNRFSGVPDRFSGSGSGTDFTLKISRVEAEDVGVYYCSQNTHVPPTFGQGTKVEIE
-1 % of GpH7-B3/GpL16-k0	34 % of GpH7-B3/GpL16-k0	-2 % of GpH7-B3/GpL16-k0	68 % of GpH7-B3/GpL16-k0	GpH7-B3 D270N/GpL16-k0 (antibody, human IgG1, B3 variant; copies: 2 + 2) heavy: not shown light: DIVMTQSPLSLPVTPGEPASISCQASESLVHSNRNTYLHWYLQKPGQSPQLLIYKVSNRFSGVPDRFSGSGSGTDFTLKISRVEAEDVGVYYCSQNTHVPPTFGQGTKVEIE
1 % of GpH7-B3/GpL16-k0	38 % of GpH7-B3/GpL16-k0	-2 % of GpH7-B3/GpL16-k0	81 % of GpH7-B3/GpL16-k0	GpH7-B3 D270T/GpL16-k0 (antibody, human IgG1, B3 variant; copies: 2 + 2) heavy: not shown light: DIVMTQSPLSLPVTPGEPASISCQASESLVHSNRNTYLHWYLQKPGQSPQLLIYKVSNRFSGVPDRFSGSGSGTDFTLKISRVEAEDVGVYYCSQNTHVPPTFGQGTKVEIE
34 % of GpH7-B3/GpL16-k0	26 % of GpH7-B3/GpL16-k0	41 % of GpH7-B3/GpL16-k0	100 % of GpH7-B3/GpL16-k0	GpH7-B3 I332P/GpL16-k0 (antibody, human IgG1, B3 variant; copies: 2 + 2) heavy: not shown light: DIVMTQSPLSLPVTPGEPASISCQASESLVHSNRNTYLHWYLQKPGQSPQLLIYKVSNRFSGVPDRFSGSGSGTDFTLKISRVEAEDVGVYYCSQNTHVPPTFGQGTKVEIE
0 % of GpH7-B3/GpL16-k0	53 % of GpH7-B3/GpL16-k0	-2 % of GpH7-B3/GpL16-k0	70 % of GpH7-B3/GpL16-k0	GpH7-B3 D270H/GpL16-k0 (antibody, human IgG1, B3 variant; copies: 2 + 2) heavy: not shown light: DIVMTQSPLSLPVTPGEPASISCQASESLVHSNRNTYLHWYLQKPGQSPQLLIYKVSNRFSGVPDRFSGSGSGTDFTLKISRVEAEDVGVYYCSQNTHVPPTFGQGTKVEIE
76 % of GpH7-B3/GpL16-k0	47 % of GpH7-B3/GpL16-k0	82 % of GpH7-B3/GpL16-k0	95 % of GpH7-B3/GpL16-k0	GpH7-B3 L328H/GpL16-k0 (antibody, human IgG1, B3 variant; copies: 2 + 2) heavy: not shown light: DIVMTQSPLSLPVTPGEPASISCQASESLVHSNRNTYLHWYLQKPGQSPQLLIYKVSNRFSGVPDRFSGSGSGTDFTLKISRVEAEDVGVYYCSQNTHVPPTFGQGTKVEIE
6 % of GpH7-B3/GpL16-k0	61 % of GpH7-B3/GpL16-k0	3 % of GpH7-B3/GpL16-k0	90 % of GpH7-B3/GpL16-k0	GpH7-B3 D270L/GpL16-k0 (antibody, human IgG1, B3 variant; copies: 2 + 2) heavy: not shown light: DIVMTQSPLSLPVTPGEPASISCQASESLVHSNRNTYLHWYLQKPGQSPQLLIYKVSNRFSGVPDRFSGSGSGTDFTLKISRVEAEDVGVYYCSQNTHVPPTFGQGTKVEIE

Reference: patent US20200199241A1 (Chugai, published 2020)
